Source: the supplement of paper PMC7877785
± gives the uncertainty stated by the source.

Test: self-splicing fitness, log relative to wild type (ln ratio); higher = more splicing; Tetrahymena group I intron in knt gene, E. coli kanamycin selection, DiMSum; sequences stand for … in CUCUCU…GGAGGGAAAAGUUAUCAGGCAUGCACCUGGUAGCUAGUCUUUAAACCAAUAGAUUGCAUCGGUUUAAAAGGCAAGACCGUCAAAUUGCGGGAAAGGGGUCAACAGCCGUUCAGUACCAAGUCUCAGGGGAAACUUUGAGAUGGCCUUGCAAAGGGUAUGGUAAUAAGCUGACGGACAUGGUCCUAACCACGCAGCCAAGUCCUAAGUCAACAGAUCUUCUGUUGAUAUGGAUGCAGUUCACAGACUAAAUGUCGGUCGGGGAAGAUGUAUUCUUCUCAUAAGAUAUAGUCGGACCUCUCCUUAAUGGGAGCUAGCGGAUGAAGUGAUGCAACACUGGAGCCGCUGGGAACUAAUUUGUAUGCGAAAGUAUAUUGAUUAGUUUUGGAGUACUCGUGGUCG
Outline: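 A randomised library covering all eight P1ex-region intron nucleotides was built with the intron in the knt kanamycin-resistance gene on pET-22b(+) and held in E. coli BL21(DE3). Cells were grown overnight at 37°C or 30°C on LB agar, with or without 25 μg/mL kanamycin, plus 100 μg/mL carbenicillin, 50 μM IPTG and 0.2% rhamnose, and pooled colonies were amplicon-sequenced on an Illumina HiSeq 2500. DiMSum fitness is the error-weighted combination of wild-type-normalised replicate fold changes, kanamycin versus none.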

| Sequence | self-splicing fitness (ln) (37 °C) | self-splicing fitness (ln) (30 °C) |
| --- | --- | --- |
| CUCAAGCAAUAUUACGAGCC | -2.67 ± 0.3 | – |
| CAUAAGCAAUAUUACGGAUU | -2.25 ± 0.23 | -3.15 ± 0.19 |
| UGACAGCAAUAUUACGAUGU | -2.28 ± 0.14 | -4.14 ± 0.17 |
| GUAGAGCAAUAUUACGCGGA | -0.734 ± 0.12 | -1.47 ± 0.14 |
| CAUAAGCAAUAUUACGCCGC | -1.59 ± 0.47 | -2.82 ± 0.38 |
| CCGAAGCAAUAUUACGUUUC | -2.84 ± 0.19 | -3.56 ± 0.24 |
| CGAAAGCAAUAUUACGACGC | 0.0494 ± 0.18 | -1.81 ± 0.13 |
| UCCGAGCAAUAUUACGGACC | -1.47 ± 0.36 | -2.53 ± 0.28 |
| CUAUAGCAAUAUUACGGCGC | – | -2.5 ± 0.28 |
| UCAGAGCAAUAUUACGUUUG | -2.36 ± 0.26 | -4.06 ± 0.24 |
| AUGCAGCAAUAUUACGAGCU | -0.565 ± 0.088 | -0.624 ± 0.073 |
| CGCAAGCAAUAUUACGGGAG | -2.19 ± 0.12 | -2.73 ± 0.095 |
| CAAGAGCAAUAUUACGAUCG | 0.562 ± 0.1 | -0.79 ± 0.071 |
| CACUAGCAAUAUUACGAGUG | -2.73 ± 0.22 | -3.45 ± 0.2 |
| CACGAGCAAUAUUACGAUGG | -1.45 ± 0.14 | -1.81 ± 0.096 |
| CUUCAGCAAUAUUACGGCCG | -0.154 ± 0.21 | -0.988 ± 0.16 |
| UCUGAGCAAUAUUACGGGGC | -2.7 ± 0.36 | -3.3 ± 0.32 |
| ACCCAGCAAUAUUACGUGUC | -1.75 ± 0.099 | -3.36 ± 0.099 |
| GCAUAGCAAUAUUACGAUGC | – | -2.72 ± 0.28 |
| AGUGAGCAAUAUUACGCAGU | -0.67 ± 0.2 | -3.01 ± 0.24 |
| GUAGAGCAAUAUUACGCAAU | -0.0736 ± 0.11 | -2.52 ± 0.11 |

| Sequence | self-splicing fitness (ln) (37 °C) | self-splicing fitness (ln) (30 °C) |
| --- | --- | --- |
| ACCUAGCAAUAUUACGAUGC | -0.172 ± 0.081 | -1.22 ± 0.078 |
| UAGUAGCAAUAUUACGCGUG | -0.705 ± 0.15 | -1.03 ± 0.12 |
| CUCCAGCAAUAUUACGGUCU | -2.31 ± 0.2 | -4 ± 0.23 |
| ACCCAGCAAUAUUACGCUCA | -0.324 ± 0.087 | -0.397 ± 0.065 |
| UCCAAGCAAUAUUACGCCGA | 0.242 ± 0.13 | -0.365 ± 0.14 |
| CCAAAGCAAUAUUACGGCCA | -2.76 ± 0.33 | -2.38 ± 0.24 |
| UGUCAGCAAUAUUACGGUCG | 0.559 ± 0.11 | -0.443 ± 0.068 |
| CCCAAGCAAUAUUACGCCGU | -2.21 ± 0.19 | -3.66 ± 0.22 |
| ACAAAGCAAUAUUACGCAUU | -1.56 ± 0.082 | -3.06 ± 0.095 |
| CUACAGCAAUAUUACGUAAA | -1.92 ± 0.17 | -3.13 ± 0.16 |
| AUCUAGCAAUAUUACGUACC | -0.395 ± 0.11 | -1.3 ± 0.091 |
| GGGCAGCAAUAUUACGAGAG | -2.82 ± 0.16 | -4.06 ± 0.17 |
| CCACAGCAAUAUUACGGAUG | -1.19 ± 0.1 | -1.97 ± 0.082 |
| AGUCAGCAAUAUUACGAGCU | -0.789 ± 0.19 | -1.97 ± 0.17 |
| UUCCAGCAAUAUUACGAUUA | -0.0509 ± 0.1 | -0.297 ± 0.12 |
| CUCCAGCAAUAUUACGAUCG | -0.922 ± 0.075 | -1.49 ± 0.063 |
| ACUUAGCAAUAUUACGAUUG | -0.306 ± 0.16 | -3.17 ± 0.2 |
| CAGGAGCAAUAUUACGUAGU | -1.55 ± 0.13 | -3.42 ± 0.17 |
| GUGCAGCAAUAUUACGUCGC | -0.148 ± 0.22 | -1.5 ± 0.28 |
| CCGUAGCAAUAUUACGAGAA | -1.03 ± 0.44 | -2.42 ± 0.42 |
| GGAUAGCAAUAUUACGCGCA | 0.0709 ± 0.14 | -0.345 ± 0.14 |

| Sequence | self-splicing fitness (ln) (37 °C) | self-splicing fitness (ln) (30 °C) |
| --- | --- | --- |
| CACCAGCAAUAUUACGGUAA | -0.566 ± 0.061 | -1.18 ± 0.056 |
| CGGCAGCAAUAUUACGCGCA | -0.247 ± 0.1 | -0.939 ± 0.097 |
| AUGAAGCAAUAUUACGUAUG | -1.26 ± 0.098 | -1.78 ± 0.082 |
| AACCAGCAAUAUUACGGCUA | 0.0992 ± 0.063 | -0.197 ± 0.048 |
| GGCAAGCAAUAUUACGCAUA | 0.0644 ± 0.13 | -0.239 ± 0.12 |
| GAUUAGCAAUAUUACGAGUC | -2.58 ± 0.33 | -3.17 ± 0.27 |
| AGCGAGCAAUAUUACGGAUA | -2.17 ± 0.34 | -2.18 ± 0.39 |
| UAUGAGCAAUAUUACGUUCA | -0.652 ± 0.22 | -1.29 ± 0.2 |
| AUCAAGCAAUAUUACGAUGA | -0.19 ± 0.086 | -0.483 ± 0.076 |
| AUAGAGCAAUAUUACGGAUG | -2.91 ± 0.31 | -1.43 ± 0.12 |
| CCCUAGCAAUAUUACGAUUC | – | -1.79 ± 0.35 |
| GUGCAGCAAUAUUACGGCUG | -2.36 ± 0.28 | -4.5 ± 0.34 |
| AGUCAGCAAUAUUACGCGAG | -0.523 ± 0.16 | -1.57 ± 0.16 |
| UAGGAGCAAUAUUACGUUUA | -0.145 ± 0.17 | -2.18 ± 0.27 |
| GUUGAGCAAUAUUACGCUAU | -2.66 ± 0.46 | -2.06 ± 0.35 |
| GGCAAGCAAUAUUACGACAU | 0.141 ± 0.032 | -0.288 ± 0.012 |
| AAAAAGCAAUAUUACGCCCU | 0.202 ± 0.12 | 0.324 ± 0.1 |
| CGGGAGCAAUAUUACGUAAC | – | -1.35 ± 0.27 |
| UUCAAGCAAUAUUACGCGGU | -1.96 ± 0.17 | -2.91 ± 0.17 |
